From publication PMC13376213 (2026) come the findings set out here.

Changes are numbered by the printed parent chain. Names and notes keep the numbering of the source. * marks the point of attachment. FITC = O=C1OC2(c3ccc(O)cc3Oc3cc(O)ccc32)c2ccc(NC(=S)*)cc21

T1: USP22 zf-UBP (Homo sapiens, UniProt Q9UPT9)
T1 chain: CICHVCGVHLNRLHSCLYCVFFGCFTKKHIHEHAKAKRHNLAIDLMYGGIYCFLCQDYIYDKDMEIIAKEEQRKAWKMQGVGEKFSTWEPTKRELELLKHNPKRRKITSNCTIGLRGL

T2: USP20 DUSP2 domain K833E/K835E (for FP) (human)
T2 chain: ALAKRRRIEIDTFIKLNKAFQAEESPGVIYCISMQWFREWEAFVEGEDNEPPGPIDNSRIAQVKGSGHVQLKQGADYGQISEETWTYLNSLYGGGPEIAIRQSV

T3: USP33 DUSP2 domain, tag cleaved (for FP) (human, UniProt Q8TEY7 1-942)
T3 chain: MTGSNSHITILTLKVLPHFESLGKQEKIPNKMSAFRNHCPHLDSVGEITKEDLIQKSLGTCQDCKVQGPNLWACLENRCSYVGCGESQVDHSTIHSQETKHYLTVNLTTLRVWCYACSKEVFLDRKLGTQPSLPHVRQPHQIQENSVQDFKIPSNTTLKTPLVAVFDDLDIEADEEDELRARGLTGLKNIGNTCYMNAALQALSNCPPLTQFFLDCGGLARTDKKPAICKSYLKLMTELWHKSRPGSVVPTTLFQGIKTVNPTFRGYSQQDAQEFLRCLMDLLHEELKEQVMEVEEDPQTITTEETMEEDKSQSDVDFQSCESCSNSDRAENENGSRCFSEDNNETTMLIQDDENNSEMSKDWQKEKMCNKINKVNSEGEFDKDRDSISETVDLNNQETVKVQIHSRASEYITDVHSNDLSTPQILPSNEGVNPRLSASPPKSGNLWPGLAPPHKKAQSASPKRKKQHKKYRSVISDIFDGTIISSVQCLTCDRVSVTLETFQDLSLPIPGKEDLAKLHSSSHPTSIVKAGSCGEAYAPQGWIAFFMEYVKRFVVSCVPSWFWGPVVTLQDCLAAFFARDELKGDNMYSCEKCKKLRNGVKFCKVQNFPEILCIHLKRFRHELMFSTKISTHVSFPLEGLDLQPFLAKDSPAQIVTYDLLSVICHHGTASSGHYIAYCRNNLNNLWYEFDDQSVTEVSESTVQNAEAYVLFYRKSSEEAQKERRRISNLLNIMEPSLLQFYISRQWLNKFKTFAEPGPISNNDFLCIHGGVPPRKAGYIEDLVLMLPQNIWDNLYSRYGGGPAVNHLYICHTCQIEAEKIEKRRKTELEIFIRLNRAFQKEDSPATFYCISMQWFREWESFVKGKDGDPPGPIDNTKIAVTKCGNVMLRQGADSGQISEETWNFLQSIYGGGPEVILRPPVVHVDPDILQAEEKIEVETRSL

T4: USP20 DUSP2 domain N805A (for FP) (human)
T4 chain: T2 chain with N17A, E45K, E47K

T5: USP33 zf-UBP domain, tag cleaved (for FP) (human, UniProt Q8TEY7 1-942)
T5 chain: T3 chain

The first assay has as its target T1, USP22 zf-UBP. The experiment in a line: fluorescence polarization (direct for FITC probes, competitive otherwise). (Fluorescence polarisation rises when a labelled molecule tumbles more slowly, as on binding a larger partner.)
With VPSLDDFAGQSWSSWVE (FITC label on probe peptides (FITC- prefix)) [ATXN7L2_18-34], binding was put at a Kd of 19.4 µM.

On to LPSPEVMLGQSWNLWVE (FITC label on probe peptides (FITC- prefix)) [ATXN7], for which the Kd (usually the constant that tells how readily two partners part at equilibrium) stood at 58.4 µM.

The target of another assay is T2, USP20 DUSP2 domain K833E/K835E (for FP). The experiment in a line: FP.
With {FITC}-SDDDLAWNIAPQGLQ-NH2 [FITC-GPR137B 348-362], the Kd was more than 290 µM.

The next assay concerns the target T3, USP33 DUSP2 domain, tag cleaved (for FP). Briefly: FP.
Turning to Ac-PYIPMDGEDFQLSPICPE-NH2 [HIF2A peptide 531-548], the Kd was more than 1000 µM.

In turn, Ac-DVVDDFQLQHRHGPG-NH2 [MFSD2B_(395-409) peptide] displayed a Kd of 0.8 µM.

In turn, Ac-SDDDLAWNIAPQGLQ-NH2 [GPR137B_(348-362) peptide] displayed a dissociation constant Kd of more than 200 µM.

Ac-QLEEELFQLRQGPAG-NH2 [CCDC88B_(947-961) peptide]: the Kd came to 40 µM.

The target in another assay is T4, USP20 DUSP2 domain N805A (for FP). Briefly: FP.
Take {FITC}-SDDDLAWNIAPQGLQ-NH2 [FITC-GPR137B 348-362]: the Kd was more than 130 µM.

Another assay concerns the target USP20 DUSP2 domain, tag cleaved (for FP) (human). Briefly: FP.
In turn, Ac-PYIPMDDDFQARSFDQLS-NH2 [HIF1A 564-581 L574A] returned a dissociation constant Kd of 89 µM.

Molecule Ac-PYIPMDGEDFQLSPICPE-NH2 [HIF2A peptide 531-548] returned a Kd of more than 200 µM.

Molecule {FITC}-SDDDLAWNIAPQGLQ-NH2 [FITC-GPR137B 348-362] returned a Kd of 5 µM.

Ac-PYIPMDKDFQLRSFDQLS-NH2 [HIF1A 564-581 D570K] yielded a Kd of 19 µM.

On to Ac-DVVDDFQLQHRHGPG-NH2 [MFSD2B_(395-409) peptide], for which the dissociation constant Kd amounted to 45 µM.

Molecule Ac-PYIPMDDDFQLRSFDQLS-NH2 [HIF1A 564-581] showed a Kd of 19 µM.

Ac-SDDDLAWNIAPQGLQ-NH2 [GPR137B_(348-362) peptide] came in with a Kd of 10 µM.

Ac-QLEEELFQLRQGPAG-NH2 [CCDC88B_(947-961) peptide] displayed a Kd of 22 µM.

With Ac-PYIPMDDKFQLRSFDQLS-NH2 [HIF1A 564-581 D571K], binding was put at a Kd of 85 µM.

The next assay addresses T5, USP33 zf-UBP domain, tag cleaved (for …). Briefly: FP.
Ac-PFQPGRMALESQSPG-NH2 [USP19 874-888] registered a Kd of 41 µM.

Ac-TNSSGKMALNSPQPG-NH2 [IRAG1 302-316] displayed a Kd of 8 µM.

As to Ac-LQPSSKASLESTSDL-NH2 [CEP192 2073-2087], the Kd came to 14 µM.

Take Ac-EKVKRRLDLDID-NH2 [CCP110_(582-593) peptide]: the Kd is more than 250 µM.

The next assay deals with USP20 zf-UBP domain, tag cleaved (for FP) (human). Briefly: FP.
USP20 zf-UBP domain, tag cleaved (for FP) (human), sequence (chain, as listed by the source): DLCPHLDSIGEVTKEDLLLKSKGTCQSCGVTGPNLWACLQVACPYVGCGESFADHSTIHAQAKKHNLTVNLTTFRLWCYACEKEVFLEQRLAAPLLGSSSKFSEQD
As to Ac-TNSSGKMALNSPQPG-NH2 [IRAG1 302-316], the Kd is 9 µM.

Turning to Ac-LQPSSKASLESTSDL-NH2 [CEP192 2073-2087], the Kd was 37 µM.

The molecule Ac-EKVKRRLDLDID-NH2 [CCP110_(582-593) peptide] yielded a dissociation constant Kd of more than 500 µM.
